# In patent US20220057408A1:
# Biological target: CD3 (Homo sapiens (Human)) (UniProt P07766)
# Test: IHC on tissue (human tonsil), 1ug/mL primary antibody, detected with Goat Anti-rabbit-HRP/DAB; 6 ROIs, 3 tissues, 95% CI for the mean; P=0.000 against H4K4-E
substance,measurement,value
rabbit anti-CD3(SP162) antibody (unmodified),Staining Intensity by ImageJ (mean),62
